From publication PMC10132971 come the findings set out here.

Series [1] concerns the target Smc5/6 hexameric complex lacking Nse5/6 with Nse4-6xHis-SNAP labelled with Alexa 647 (S. cerevisiae) (UniProt Q08204). As to the kind of experiment: single-molecule fluorescence, counting of photobleaching steps; Alexa 647-labelled complex (2 nM unless stated otherwise) on surface-tethered lambda-DNA; 40 mM Tris-HCl pH 7.5, 100 mM NaCl, 7.5 mM MgCl2, 2 mM ATP, 30 °C; loop-extruding complexes. The following applies: remark: other sources report otherwise.

Series [2] has as its target Smc5/6 hexameric complex lacking Nse5/6 (S. cerevisiae) (UniProt Q08204).
For series [3] the target is unchanged. As to the kind of experiment: mass photometry; 10 nM hexamer with 10 nM purified Nse5/6 (1:1) and 5 nM 200 bp DNA, no ATP; 40 mM Tris-HCl pH 7.5, 100 mM potassium glutamate, 7.5 mM MgCl2, 30 °C for 10 min. The following applies: remark: other sources report otherwise.
The target is the same in series [4]. As to the kind of experiment: mass photometry; 10 nM complex with 5 nM 200 bp linear double-stranded DNA, no ATP; 40 mM Tris-HCl pH 7.5, 100 mM potassium glutamate, 7.5 mM MgCl2, 30 °C for 10 min; monomer to dimer of complexes. The following applies: remark: other sources report otherwise.
Series [5] has as its target Smc5/6 octameric complex with Nse2-6xHis-SNAP labelled with Alexa 647 (S. cerevisiae) (UniProt Q08204). Kind of series: single-molecule fluorescence, counting of photobleaching steps; Alexa 647-labelled complex (2 nM unless stated otherwise) on surface-tethered lambda-DNA; 40 mM Tris-HCl pH 7.5, 100 mM NaCl, 7.5 mM MgCl2, 2 mM ATP, 30 °C; loop-extruding complexes.
Series [6] has as its target Smc5/6 octameric complex with Nse4-6xHis-SNAP labelled with Alexa 647 (S. cerevisiae) (UniProt Q08204). Described as above.
In series [7] the target is Smc5/6 hexamer (lacking Nse5/6) (Saccharomyces cerevisiae (W303)) (UniProt Q08204+Q12749+Q07913+P38632+Q05541+P43124). Kind of series: single-molecule fluorescence. Particulars: 1 M NaCl wash; both ends tethered to surface; Mass photometry: 40 mM Tris-HCl pH 7.5, 100 mM K-glutamate, 7.5 mM MgCl2, 30 C, 10 nM protein, 5 nM DNA; single-molecule: 2 nM Smc5/6, imaging buffer with ….

The target of series [8] is Smc5/6 octamer (WT, with Nse5/6) (Saccharomyces cerevisiae (W303)) (UniProt Q08204+Q12749+Q07913+P38632+Q05541+P43124+Q03718+P40026). Kind of series: single-molecule fluorescence. The following applies: 1 M NaCl wash after 1 h incubation; nonlooping complexes, n=481; both ends tethered to surface; Mass photometry: 40 mM Tris-HCl pH 7.5, 100 mM K-glutamate, 7.5 mM MgCl2, 30 C, 10 nM protein, 5 nM DNA; single-molecule: 2 nM Smc5/6, imaging buffer with ….

Consider “Smc5/6 hexameric complex lacking Nse5/6 with Nse4-6xHis-SNAP labelled with Alexa 647, Q08204 1-1093; Q12749 1-1114; Q07913 1-336; P38632 1-267; Q05541 1-303; P43124 1-402”, for which the stoichiometry N in series [1] came out at 2.
In the case of “Smc5/6 hexameric complex lacking Nse5/6, Q08204 1-1093; Q12749 1-1114; Q07913 1-336; P38632 1-267; Q05541 1-303; P43124 1-402”, the looping probability of DNA with the hexamer compared with the WT octamer in series [2] is 15 fold. This substance returned a dimers, percent of total counts, with Nse5/6 added 1:1 in series [3] of 3%. Further, in series [4], the dimers, percent of normalized population is 40% and the dimers, percent of total counts was 25%.
In the case of “Smc5/6 octameric complex with Nse2-6xHis-SNAP labelled with Alexa 647 (from UniProt Q08204 1-1093; Q12749 1-1114; Q07913 1-336; P38632 1-267; Q05541 1-303; P43124 1-402; Q03718 1-556)”, in series [5], the stoichiometry N stood at 2.
On to “Smc5/6 octameric complex with Nse4-6xHis-SNAP labelled with Alexa 647 (from UniProt Q08204 1-1093; Q12749 1-1114; Q07913 1-336; P38632 1-267; Q05541 1-303; P43124 1-402; Q03718 1-556)”, for which, in series [6], the dimer fraction came to 100% and the stoichiometry N turned out to be 2.
For the substance lambda DNA, 48.5 kbp (48,502 bp), the binding signal (% remaining bound after high-salt wash) is 0 in series [7] and 7 in series [8].

By stoichiometry N is commonly meant a count of units in the complex or per binding partner.
